Each block holds one binder with its values, some of them ahead of it.
Columns and labels:
[1] = molecular target: T1, recombinant human clusterin (human, UniProt P10909 23-449); assay: SPR (BIAcore 3000), rhCLU 5.5 nM-1.4 µM over immobilized P3378 (500 RU), global fit, 1:1 Langmuir
T1 construct: also called rhCLU; rh-clusterin
Procedure: (§1) Protein-peptide interactions were followed using a BIAcore 3000 instrument (Biosensor AB, Uppsala, Sweden). All binding experiments were carried out at 25° C. under a continuous flow of the HBS-EP buffer (20 mM HEPES, 150 mM NaCl, 3.4 mM EDTA and 0.05% Tween-200) at pH 7.4 over the sensor surface at a flow rate of 20 μL/min. Different concentrations of rh-clusterin in the HBS-EP buffer were injected over the peptide-derivatized sensor chips. Dissociation was monitored for up to 300 s post-injection. The surfaces were fully regenerated by 15 s injection of an HBS-EP buffer solution containing 5 mM NaOH. […] Reference responses from control flow cells, containing unmodified dextran surfaces, were subtracted from peptide-containing flow cells, for each analyte injection using the BiaEvaluation software version 3.0 (Biacore AB, Uppsala, Sweden).
(§2) The resulting sensorgrams were used for kinetic rate determination through global fitting of the experimental data to a simple 1:1 Langmuir binding model. […] Affinity data (KD) from the binding studies were obtained by plotting the response in RU at the steady state, Req, versus the concentration of clusterin, C, and by fitting these curves to a one-site binding model, Req=C*xRmax/(C+KD) where Rmax is the value in RU at saturation and Req is the observed optical change in RU at each given C. […]

[2] = molecular target: T1, recombinant human clusterin; assay: SPR, rh-clusterin preincubated with mAb 16B5 (ratios of 1:1.7), flowed over immobilized P3378; rh-clusterin preincubated with mAb 16B5 (ratio 1:1.7)
Procedure: Different concentrations of rh-clusterin in the HBS-EP buffer were injected over the peptide-derivatized sensor chips. Dissociation was monitored for up to 300 s post-injection. The surfaces were fully regenerated by 15 s injection of an HBS-EP buffer solution containing 5 mM NaOH. […] Reference responses from control flow cells, containing unmodified dextran surfaces, were subtracted from peptide-containing flow cells, for each analyte injection using the BiaEvaluation software version 3.0 (Biacore AB, Uppsala, Sweden).
The question of whether an EMT-blocking anti-clusterin monoclonal antibody (mAb) 16B5 and P3378 have overlapping or independent binding sites on clusterin was investigated using SPR biosensor analysis. Several mAbs that interact with clusterin have been isolated; five of these mAbs, including 16B5, interact with an epitope on clusterin that is important for the EMT-promoting action of clusterin. Accordingly, these anti-clusterin mAbs inhibit EMT in cell culture, and tumor metastasis in animal models (O'Connor-McCourt et al, WO 2007/030930). Since clusterin-binding peptides can be used to non-invasively image clusterin-expressing tumors (primary tumors and metastases) in vivo, it is important to determine whether treatment with anti-clusterin mAbs may block peptide binding to the clusterin target and therefore compromise the ability of the peptides to image the tumor. […]

[3] = molecular target: T1, recombinant human clusterin; assay: SPR, rh-clusterin alone flowed over immobilized P3378, fit of the response against the clusterin concentration [inset]
Procedure: as §1, with “All” for “Protein-peptide interactions were followed using a BIAcore 3000 instrument (Biosensor AB, Uppsala, Sweden). All”
(§3) The question of whether an EMT-blocking anti-clusterin monoclonal antibody (mAb) 16B5 and P3378 have overlapping or independent binding sites on clusterin was investigated using SPR biosensor analysis. Several mAbs that interact with clusterin have been isolated; five of these mAbs, including 16B5, interact with an epitope on clusterin that is important for the EMT-promoting action of clusterin. Accordingly, these anti-clusterin mAbs inhibit EMT in cell culture, and tumor metastasis in animal models (O'Connor-McCourt et al, WO 2007/030930). […]

[4] = molecular target: T1, recombinant human clusterin; assay: SPR (BIAcore 3000), rhCLU over immobilized P3378 (500 RU), kinetic global fit, 1:1 Langmuir
Procedure: as §1, §2

[5] = molecular target: T1, recombinant human clusterin; assay: SPR, rh-clusterin 0-1.2 µM over immobilized P3378, no antibody; no antibody; rh-clusterin alone over immobilized P3378
Procedure: as §1, with “All” for “Protein-peptide interactions were followed using a BIAcore 3000 instrument (Biosensor AB, Uppsala, Sweden). All”
as §3

[6] = molecular target: T1, recombinant human clusterin; assay: SPR, rhCLU 0 nM to 1.4 µM over immobilized P3376 (150 RU), response at equilibrium, one-to-one binding model
Procedure: as §1, §2

[7] = molecular target: T1, recombinant human clusterin; assay: SPR, rhCLU flowed over immobilized P3376, fit of the response against the clusterin concentration [inset]
Procedure: as §1, §2

[8] = molecular target: T1, recombinant human clusterin; assay: SPR, rh-clusterin flowed over immobilized P3375R, response against the clusterin concentration [right panel]
Procedure: as §1
The sequence dependence of the clusterin-peptide interactions was investigated using SPR biosensor analysis and peptides with scrambled sequences. Immobilization of the peptides on the sensor chips and the SPR experiments were conducted as described in Example 4.

[9] = molecular target: T1, recombinant human clusterin; assay: SPR, rhCLU flowed over immobilized P3378R
Procedure: as §1
This control peptide has the same amino acid content as P3378 but with a randomized sequence ([…]—SEQ ID NO:6). A lack of binding between rhCLU and this control peptide is evidenced by the linear nature of the Scatchard plot (inset; the response at equilibrium plotted against the concentration of rhCLU).

[10] = molecular target: T1, recombinant human clusterin; assay: SPR (BIAcore 3000), rhCLU over immobilized P3375 (1200 RU), kinetic global fit, 1:1 Langmuir
Procedure: as §1, §2

[11] = molecular target: T1, recombinant human clusterin; assay: SPR, rhCLU flowed over immobilized P3375, global fit
Procedure: as §1, §2

[12] = molecular target: T1, recombinant human clusterin; assay: SPR (BIAcore 3000), rhCLU 2 nM-1.1 µM over immobilized P3375 (1200 RU), global fit, 1:1 Langmuir
Procedure: as §1, §2

T1 sequence (P10909 23-449 limits assumed): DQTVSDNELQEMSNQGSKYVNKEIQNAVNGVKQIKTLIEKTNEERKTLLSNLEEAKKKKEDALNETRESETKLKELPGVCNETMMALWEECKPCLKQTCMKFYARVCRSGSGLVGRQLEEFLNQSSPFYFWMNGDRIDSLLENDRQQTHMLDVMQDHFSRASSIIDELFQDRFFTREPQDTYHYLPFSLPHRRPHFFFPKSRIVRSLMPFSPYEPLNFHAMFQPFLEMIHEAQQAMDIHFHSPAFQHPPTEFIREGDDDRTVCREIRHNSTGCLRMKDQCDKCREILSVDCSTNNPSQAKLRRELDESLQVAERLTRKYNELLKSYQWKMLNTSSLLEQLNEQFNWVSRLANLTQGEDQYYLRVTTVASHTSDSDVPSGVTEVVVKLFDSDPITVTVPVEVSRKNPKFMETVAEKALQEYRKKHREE

koff [1]: 0.0052 s⁻¹ | kon [1]: 17200 M⁻¹ s⁻¹ | Kd [2]: 1100 nM | Kd [3]: 514 nM | Kd [4]: 300 nM | Kd [5]: 520 nM
B1: P3378 synthetic peptide (HPLSKHPYWSQP with C-terminal SGSGC extension) (peptide)
peptide: HPLSKHPYWSQPSGSGC
notes: Synthesised by Fmoc chemistry; In SPR it was immobilised on a CM5 chip by a thioether bond from the C-terminal Cys to maleimide; In STD-NMR it was free in solution

Kd [6]: 340 nM | Kd [7]: 342 nM
B2: P3376 synthetic peptide (SHALPLTWSTAA with C-terminal SGSGC extension) (peptide)
peptide: SHALPLTWSTAASGSGC
notes: In SPR it was immobilised through the C-terminal Cys (thioether); In STD-NMR it was free in solution

EC50 (read off the curve) [8]: ~200 nM
Binder: LSLYHTNTQFWQSGSGC (Immobilised on the SPR chip) [P3375R, randomized version of P3375 (LSLYHTNTQFWQSGSGC)]

binding result [9]: no binding
B3: P3378R, randomized-sequence control peptide of P3378 (PYLHQSPHWKPSSGSGC) (peptide)
peptide: PYLHQSPHWKPSSGSGC
notes: Immobilised on the SPR chip; also called scrambled control peptide

Kd [10]: 540 nM | koff [11]: 0.00603 s⁻¹ | koff [12]: 0.006 s⁻¹ | kon [12]: 11200 M⁻¹ s⁻¹
B4: P3375 synthetic peptide (NTYWSQLLHFQT with C-terminal SGSGC extension) (peptide)
peptide: NTYWSQLLHFQTSGSGC
notes: as for B2

Reference: patent US20120121507A1 (NATIONAL RESEARCH COUNCIL OF CANADA, published 2012)
